What was measured:
[1] = molecular target: T1, human TNFR2 overexpressed on CHO-S cells (CHOS-hTNFR2) (human, UniProt P20333 23-461); assay: flow cytometry on CHO-S cells overexpressing human TNFR2 (positive control), MFI-FL2-A; unit taken from the axis Conc log(nM)
T1 construct: also called hTNFR2 CHO-S; human TNFR2 molecule overexpressed on CHO-S cells
T1 sequence: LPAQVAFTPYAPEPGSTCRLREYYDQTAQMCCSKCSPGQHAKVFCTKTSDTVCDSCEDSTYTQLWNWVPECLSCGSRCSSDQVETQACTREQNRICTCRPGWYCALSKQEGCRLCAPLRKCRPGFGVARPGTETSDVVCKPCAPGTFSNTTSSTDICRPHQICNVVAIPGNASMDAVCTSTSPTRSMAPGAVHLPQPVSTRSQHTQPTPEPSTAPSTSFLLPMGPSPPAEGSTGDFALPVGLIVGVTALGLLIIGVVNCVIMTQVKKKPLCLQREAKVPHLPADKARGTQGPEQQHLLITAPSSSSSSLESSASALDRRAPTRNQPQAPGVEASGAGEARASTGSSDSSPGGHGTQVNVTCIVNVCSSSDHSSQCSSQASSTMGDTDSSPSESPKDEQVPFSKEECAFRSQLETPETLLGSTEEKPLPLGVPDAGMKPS
Protocol: (§1) In the study, the binding of the chimeric antibodies of the present invention, after being diluted in a gradient, to a stable CHO-S cell strain overexpressing human TNFR2 on the surface was assayed by using a flow cytometer. cDNAs encoding human TNFR2 (SEQ ID NO: 60) and cynomolgus monkey TNFR2 (SEQ ID NO: 61) were cloned into pCH01.0 vectors (Invitrogen), which were transfected into CHO-S cells (Invitrogen) to produce CHO-S cells overexpressing human TNFR2 (CHOS-hTNFR2) and CHO-S cells overexpressing cynomolgus monkey TNFR2 (CHOS-cTNFR2).
(§2) CHOS-hTNFR2 cells or CHOS-cTNFR2 cells were counted and diluted to 2×10⁶ cells/mL, and added to a U-bottom 96-well plate at 100 μL/well. The mixture was centrifuged at 300 g for 5 min, and the cell medium was removed. The dilutions of the samples (the chimeric antibodies 3C4, 69B1, and 72G8 and the positive control antibody OPI) (the antibodies were subjected to a three-fold serial dilution in PBS from the maximum antibody concentration of 300 nM) were added to the U-plate, and the cells were resuspended at 100 μL/well and left to stand on ice for 30 min. The suspension was centrifuged at 400 g for 5 min, and the supernatant was removed. The cells were washed twice with PBS. The mixture was centrifuged at 300 g for 5 min, and PBS was removed. […]

[2] = molecular target: T2, cynomolgus monkey TNFR2 overexpressed on CHO-S cells (CHOS-cTNFR2) (cynomolgus monkey, UniProt P20333 23-461 (human entry)); assay: flow cytometry on CHO-S cells overexpressing cynomolgus monkey TNFR2 (positive control), MFI-FL2-A; unit taken from the axis Conc log(nM)
T2 construct: also called cTNFR2 CHO-S
T2 chain: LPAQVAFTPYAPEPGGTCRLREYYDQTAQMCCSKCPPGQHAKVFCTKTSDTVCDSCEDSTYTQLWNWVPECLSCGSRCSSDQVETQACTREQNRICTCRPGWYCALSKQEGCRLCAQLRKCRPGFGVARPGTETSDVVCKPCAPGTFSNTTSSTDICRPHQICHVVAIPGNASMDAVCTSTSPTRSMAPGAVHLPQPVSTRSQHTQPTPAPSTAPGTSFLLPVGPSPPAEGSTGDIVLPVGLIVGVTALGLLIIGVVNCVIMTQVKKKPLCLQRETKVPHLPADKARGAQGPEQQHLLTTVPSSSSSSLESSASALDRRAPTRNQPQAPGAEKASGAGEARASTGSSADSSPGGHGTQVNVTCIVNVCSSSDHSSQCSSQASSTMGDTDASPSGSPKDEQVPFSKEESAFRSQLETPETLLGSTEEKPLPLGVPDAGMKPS
Protocol: as §1, §2

[3] = molecular target: T1, human TNFR2 overexpressed on CHO-S …; assay: flow cytometry on CHO-S cells overexpressing human TNFR2 (positive control), MFI-FL2A; unit taken from the axis Conc log(nM)
Protocol: In the study, the binding of the antibodies, after being diluted in a gradient, to a stable CHO-S strain line overexpressing human TNFR2 on the surface was assayed by using a flow cytometer.
CHOS-hTNFR2 cells were counted and diluted to 2×10⁶ cells/mL, and added to a U-bottom 96-well plate at 100 μL/well. The mixture was centrifuged at 300 g for 5 min, and the cell medium was removed. Samples (the humanized antibodies hz3C4.7, hz69B1.5, hz69B1.6, hz69B1.11 and hz69B1.20, the chimeric antibody 69B1, and the positive control antibody OPI) (the antibodies were subjected to a three-fold dilution in PBS from the maximum antibody concentration of 300 nM) were added to the U-plate, and the cells were resuspended at 100 μL/well and left to stand on ice for 30 min. The suspension was centrifuged at 400 g for 5 min, and the supernatant was removed. The cells were washed twice with PBS. The mixture was centrifuged at 300 g for 5 min, and PBS was removed. 100 μL of anti-human Fc PE-labeled secondary antibody (SoutherBiotech; 2040-09) (diluted at a 1:100 ratio in PBS) was added to each well and incubated on ice for 30 min in the dark. The mixture was centrifuged at 400 g for 5 min, and the supernatant was removed. The cells were washed 3 times with PBS. The cells were resuspended in 200 μL of 1×PBS and assayed by FACS.

B1: positive control antibody OPI (humanized antibody SBT-002e in WO 2017083525) (antibody, V domains shown)
VH: QVTLKESGPALVKPTQTLTLTCTFSGFSLSTSGMGVGWIRQPPGKALEWLAHIWWDDDKFYNPSLKSRLTISKDTSKNQVVLTMTNMDPVDTATYYCARLTGTRYFDYWGQGTTVTVSS
VL: DVQMTQSPSSLSASVGDRVTITCKASQDINKFIAWYQQKPGKAPKLLIHYTSTLQPGIPSRFSGSGSGRDYTFTISSLQPEDIATYYCLQYGNLWTFGGGTKVEIK
notes: also called Benchmark OPI
[1]
  EC50: 2.62 nM
[2]
  EC50: 0.431 nM
[3]
  EC50: 0.486 nM

From US20240026019A1 (Innovent, published 2024)
